From publication doi:10.1101/559005

What was measured:
[1] = molecular target: ScSth1p bromodomain (residues 1250-1359), wild type (S. cerevisiae) (UniProt P32597); assay: ITC
[2] = molecular target: ScSth1p Ser1276Glu mutant bromodomain (S. cerevisiae) (UniProt P32597); assay: ITC

Work on HsH2AK15ac peptide yielded a Kd [1] of 44 µM.

Work on H4K20ac peptide yielded a Kd [1] of 48 µM and a Kd [2] of 31 µM.

With H3K14ac peptide the Kd [1] was 18 µM and the Kd [2] was 3 µM.
